Patent publication US20250381289A1 (Genmab, published 2025)

How the values were obtained:
[1] = biological target: human HER2 recombinant protein (human, UniProt P04626 23-652); assay: ELISA, coated human HER2, anti-human Fc-HRP
[2] = biological target: T1, EGFR on EGFR and cMET co-expressed tumor cell lines (UniProt P00533 25-1210, limits assumed); assay: flow cytometry, EBC-1 cells (co-express EGFR and cMET; both arms contribute)
T1 construct: whole, on cells

[3] = biological target: T2, cMET on EGFR and cMET co-expressed tumor cell lines (UniProt P08581 25-1390, limits assumed); assay: as above
T2 construct: whole, on cells
Target sequence in this assay (P08581 25-1390 limits assumed): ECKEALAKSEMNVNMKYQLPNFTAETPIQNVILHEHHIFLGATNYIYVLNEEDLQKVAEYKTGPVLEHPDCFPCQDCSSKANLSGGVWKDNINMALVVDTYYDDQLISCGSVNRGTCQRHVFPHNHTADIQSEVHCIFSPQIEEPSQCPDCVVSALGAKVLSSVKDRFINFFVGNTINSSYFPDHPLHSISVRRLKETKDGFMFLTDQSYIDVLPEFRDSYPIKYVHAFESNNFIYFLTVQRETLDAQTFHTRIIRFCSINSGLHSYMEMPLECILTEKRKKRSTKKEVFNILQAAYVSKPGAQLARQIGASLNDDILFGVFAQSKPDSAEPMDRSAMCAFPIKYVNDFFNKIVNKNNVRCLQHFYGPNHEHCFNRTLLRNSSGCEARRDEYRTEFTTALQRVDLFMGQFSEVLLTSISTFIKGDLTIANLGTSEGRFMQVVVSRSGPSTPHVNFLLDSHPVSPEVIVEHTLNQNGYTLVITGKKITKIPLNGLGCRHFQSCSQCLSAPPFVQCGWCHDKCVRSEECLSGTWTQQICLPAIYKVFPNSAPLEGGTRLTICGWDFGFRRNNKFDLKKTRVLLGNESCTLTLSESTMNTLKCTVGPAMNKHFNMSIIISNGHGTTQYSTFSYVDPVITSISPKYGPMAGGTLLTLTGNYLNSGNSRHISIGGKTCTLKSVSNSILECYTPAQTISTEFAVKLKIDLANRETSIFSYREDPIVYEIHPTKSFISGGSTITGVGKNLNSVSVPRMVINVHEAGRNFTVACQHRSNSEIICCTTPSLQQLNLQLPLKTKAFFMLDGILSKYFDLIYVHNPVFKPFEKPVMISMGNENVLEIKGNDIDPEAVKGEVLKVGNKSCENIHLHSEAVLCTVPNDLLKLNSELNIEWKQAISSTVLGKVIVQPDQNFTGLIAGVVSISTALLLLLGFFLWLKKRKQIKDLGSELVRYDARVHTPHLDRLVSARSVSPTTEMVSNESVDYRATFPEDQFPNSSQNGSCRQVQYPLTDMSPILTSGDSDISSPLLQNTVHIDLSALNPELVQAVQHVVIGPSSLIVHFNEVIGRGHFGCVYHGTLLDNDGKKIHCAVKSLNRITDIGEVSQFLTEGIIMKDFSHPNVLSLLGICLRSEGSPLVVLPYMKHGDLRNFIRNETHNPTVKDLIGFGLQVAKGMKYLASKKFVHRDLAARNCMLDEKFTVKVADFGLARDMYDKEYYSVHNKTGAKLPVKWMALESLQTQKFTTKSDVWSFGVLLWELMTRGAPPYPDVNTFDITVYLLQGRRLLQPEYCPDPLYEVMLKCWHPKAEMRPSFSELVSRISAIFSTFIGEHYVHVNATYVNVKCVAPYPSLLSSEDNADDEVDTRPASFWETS

[4] = biological target: T1, EGFR on EGFR and cMET co-expressed …; assay: flow cytometry, A431 cells (co-express EGFR and cMET; both arms contribute)
[5] = biological target: T2, cMET on EGFR and cMET co-expressed …; assay: as above
Target sequence in this assay (P08581 25-1390 limits assumed): as above

[6] = biological target: T1, EGFR on EGFR and cMET co-expressed …; assay: flow cytometry, SNU-5 cells (co-express EGFR and cMET; both arms contribute)
[7] = biological target: T2, cMET on EGFR and cMET co-expressed …; assay: as above
Target sequence in this assay (P08581 25-1390 limits assumed): as above

Human cMET = biological target: T3, Human cMET (human); assay: ELISA, coated human cMET, anti-human Fc-HRP
T3 construct: recombinant protein; also called human cMET recombinant protein

[8] = biological target: T4, human Sema3A recombinant protein (human, UniProt Q14563 21-771, limits assumed); assay: ELISA, coated human Sema3A, anti-human Fc-HRP
T4 sequence (looked up): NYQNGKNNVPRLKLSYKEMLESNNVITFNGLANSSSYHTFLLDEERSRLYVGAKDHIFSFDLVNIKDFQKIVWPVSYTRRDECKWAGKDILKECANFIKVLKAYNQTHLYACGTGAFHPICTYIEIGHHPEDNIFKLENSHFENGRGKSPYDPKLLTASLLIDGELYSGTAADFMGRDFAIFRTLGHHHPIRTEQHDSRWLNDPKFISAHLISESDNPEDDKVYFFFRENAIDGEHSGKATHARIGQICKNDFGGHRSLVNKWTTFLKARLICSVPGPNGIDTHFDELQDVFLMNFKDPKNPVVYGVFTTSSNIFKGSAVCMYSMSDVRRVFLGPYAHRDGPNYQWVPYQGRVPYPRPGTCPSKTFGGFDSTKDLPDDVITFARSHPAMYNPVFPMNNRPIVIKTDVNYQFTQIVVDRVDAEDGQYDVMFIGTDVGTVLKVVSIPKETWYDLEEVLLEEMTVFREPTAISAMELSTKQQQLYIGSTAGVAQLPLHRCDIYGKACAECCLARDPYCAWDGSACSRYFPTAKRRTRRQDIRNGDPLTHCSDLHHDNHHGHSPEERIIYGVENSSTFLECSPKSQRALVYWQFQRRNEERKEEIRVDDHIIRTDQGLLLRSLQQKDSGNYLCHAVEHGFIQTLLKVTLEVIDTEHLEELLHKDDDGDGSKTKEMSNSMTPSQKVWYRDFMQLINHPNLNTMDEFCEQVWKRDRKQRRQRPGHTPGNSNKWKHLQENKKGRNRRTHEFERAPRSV

[9] = biological target: T5, human HER4 recombinant protein (human, UniProt Q15303 26-649, limits assumed); assay: ELISA, coated human HER4, anti-human Fc-HRP
T5 sequence (looked up): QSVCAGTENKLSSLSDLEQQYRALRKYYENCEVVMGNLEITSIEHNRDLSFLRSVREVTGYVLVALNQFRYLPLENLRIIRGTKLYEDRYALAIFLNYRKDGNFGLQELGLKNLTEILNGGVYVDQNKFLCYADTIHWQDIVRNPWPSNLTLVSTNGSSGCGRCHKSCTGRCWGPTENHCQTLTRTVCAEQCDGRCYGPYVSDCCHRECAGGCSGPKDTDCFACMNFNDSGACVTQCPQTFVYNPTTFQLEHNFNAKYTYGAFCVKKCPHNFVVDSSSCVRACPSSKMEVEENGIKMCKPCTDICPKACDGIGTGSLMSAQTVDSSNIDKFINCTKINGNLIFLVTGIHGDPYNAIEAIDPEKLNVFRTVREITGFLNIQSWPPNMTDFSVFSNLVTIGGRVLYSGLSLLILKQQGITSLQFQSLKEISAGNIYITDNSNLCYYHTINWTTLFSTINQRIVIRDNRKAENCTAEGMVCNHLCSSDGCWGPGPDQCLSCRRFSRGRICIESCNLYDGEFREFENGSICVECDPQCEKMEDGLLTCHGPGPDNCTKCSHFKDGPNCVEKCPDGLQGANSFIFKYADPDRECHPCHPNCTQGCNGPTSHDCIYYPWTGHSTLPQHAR

human cMET-Fc = biological target: T6, human cMET-Fc (human, UniProt P08581 25-932); assay: blocking ELISA: coated human cMET-Fc, antibody titrated, then human HGF-His (blocked ligand), anti-His-HRP
T6 construct: not shown: Fc part, not described

[10] = biological target: T2, cMET on EGFR and cMET co-expressed …; assay: flow cytometry, MKN-45 cells
[11] = biological target: T2, cMET on EGFR and cMET co-expressed …; assay: flow cytometry, MKN-45 cells; remark: listed apart in the source
[12] = biological target: T1, EGFR on EGFR and cMET co-expressed …; assay: flow cytometry, EBC-1 cells (co-express EGFR and cMET; both arms contribute); remark: listed apart in the source
[13] = biological target: T2, cMET on EGFR and cMET co-expressed …; assay: as above; remark: listed apart in the source
[14] = biological target: T2, cMET on EGFR and cMET co-expressed …; assay: flow cytometry, MKN-45 cells; remark: listed apart in the source
[15] = biological target: T2, cMET on EGFR and cMET co-expressed …; assay: flow cytometry, NCI-H1975 cells
[16] = biological target: T2, cMET on EGFR and cMET co-expressed …; assay: flow cytometry, NCI-H441 cells

T3 sequence (P08581 whole entry): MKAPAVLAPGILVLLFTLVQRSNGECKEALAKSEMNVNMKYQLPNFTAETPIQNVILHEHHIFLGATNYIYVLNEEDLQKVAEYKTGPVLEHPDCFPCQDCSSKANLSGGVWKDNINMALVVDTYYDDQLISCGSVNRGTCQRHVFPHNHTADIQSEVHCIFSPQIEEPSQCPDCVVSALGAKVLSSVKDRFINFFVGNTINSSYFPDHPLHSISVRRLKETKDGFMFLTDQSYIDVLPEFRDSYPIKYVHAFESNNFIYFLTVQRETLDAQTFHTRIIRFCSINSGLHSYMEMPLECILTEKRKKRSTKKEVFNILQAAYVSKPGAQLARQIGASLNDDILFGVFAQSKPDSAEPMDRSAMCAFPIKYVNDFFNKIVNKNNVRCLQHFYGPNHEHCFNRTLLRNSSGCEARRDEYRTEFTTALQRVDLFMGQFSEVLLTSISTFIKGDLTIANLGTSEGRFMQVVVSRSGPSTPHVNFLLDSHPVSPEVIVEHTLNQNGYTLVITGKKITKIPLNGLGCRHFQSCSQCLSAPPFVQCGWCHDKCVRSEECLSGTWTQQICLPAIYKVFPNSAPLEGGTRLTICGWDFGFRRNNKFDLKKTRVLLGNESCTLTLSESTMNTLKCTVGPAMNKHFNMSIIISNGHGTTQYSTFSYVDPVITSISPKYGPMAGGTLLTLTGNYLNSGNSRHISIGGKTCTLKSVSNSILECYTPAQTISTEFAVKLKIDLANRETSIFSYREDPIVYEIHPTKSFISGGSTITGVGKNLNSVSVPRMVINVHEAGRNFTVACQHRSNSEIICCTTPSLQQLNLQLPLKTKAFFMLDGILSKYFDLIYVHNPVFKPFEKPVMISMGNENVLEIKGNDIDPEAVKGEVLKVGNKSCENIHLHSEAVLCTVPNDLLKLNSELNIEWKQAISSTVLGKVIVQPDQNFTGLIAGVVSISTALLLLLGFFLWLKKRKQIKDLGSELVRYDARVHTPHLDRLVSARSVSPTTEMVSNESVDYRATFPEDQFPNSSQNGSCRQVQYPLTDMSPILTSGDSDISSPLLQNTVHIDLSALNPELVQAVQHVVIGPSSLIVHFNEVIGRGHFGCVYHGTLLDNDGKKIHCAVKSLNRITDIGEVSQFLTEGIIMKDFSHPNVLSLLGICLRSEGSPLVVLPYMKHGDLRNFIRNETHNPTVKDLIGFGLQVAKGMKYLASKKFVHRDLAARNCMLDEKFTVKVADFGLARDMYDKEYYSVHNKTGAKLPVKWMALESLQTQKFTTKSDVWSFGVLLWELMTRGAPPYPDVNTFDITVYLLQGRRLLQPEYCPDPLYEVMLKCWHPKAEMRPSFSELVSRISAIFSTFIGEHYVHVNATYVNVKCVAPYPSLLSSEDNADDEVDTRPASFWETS

B1: AZD9592-Ab (bispecific antibody, human IgG1, kappa, lambda)
anti EGFR heavy chain: QVQLVQSGAEVKKPGSSVKVSCKASGGTFSDNDFSWVRQAPGQGLEWMGAIVAVFRTETYAQKFQDRVKITADISTRTTYMELSSLRSEDTAVYYCARRLMSAISGPGAPLLMWGQGTLVTVSSASTKGPSVCPLAPSSKSTSGGTAALGCLVKDYFPEPVTVSWNSGALTSGVHTFPAVLQSSGLYSLSSVVTVPSSSLGTQTYICNVNHKPSNTKVDKRVEPKSVDKTHTCPPCPAPEFEGGPSVFLFPPKPKDTLMISRTPEVTCVVVDVSHEDPEVKFNWYVDGVEVHNAKTKPREEQYNSTYRVVSVLTVLHQDWLNGKEYKCKVSNKALPASIEKTISKAKGQPREPQVYTLPPCREEMTKNQVSLWCLVKGFYPSDIAVEWESNGQPENNYKTTPPVLDSDGSFFLYSKLTVDKSRWQQGNVFSCSVMHEALHNHYTQKSLSLSPGK
anti EGFR light chain: QSALTQPRSVSGSPGQSVTISCTGTSSDVGGYNYVSWYQQHPGKAPKLMIYDVSKRPSGVPDRFSGSKSGNTASLTISGLQAEDEADYYCSSYTSSDTLEIFGGGTKLTVLGQPKAAPSVTLFPPCSEELQANKATLVCLISDFYPGAVTVAWKADSSPVKAGVETTTPSKQSNNKYAASSYLSLTPEQWKSHRSYSCQVTHEGSTVEKTVAPTEVS
anti cMET heavy chain: QVQLVQSGAEVKKPGASVKVSCKASGYTFTDYYIHWVRQATGQGLEWMGWMNPNSGNTGYAQKFQGRVTMTRDTSISTAYMELSSLRSEDTAVYYCARGQGYTHSWGQGTMVTVSSASTKGPSVFPLAPSSKSTSGGTAALGCLVKDYFPEPVTVSWNSGALTSGVHTFPAVLQSSGLYSLSSVVTVPSSSLGTQTYICNVNHKPSNTKVDKRVEPKSCDKTHTCPPCPAPEFEGGPSVFLFPPKPKDTLMISRTPEVTCVVVDVSHEDPEVKFNWYVDGVEVHNAKTKPREEQYNSTYRVVSVLTVLHQDWLNGKEYKCKVSNKALPASIEKTISKAKGQPREPQVCTLPPSREEMTKNQVSLSCAVKGFYPSDIAVEWESNGQPENNYKTTPPVLDSDGSFFLVSKLTVDKSRWQQGNVFSCSVMHEALHNHYTQKSLSLSPGK
anti cMET light chain: DIQMTQSPSTLSASVGDRVTITCRASEGIYHWLAWYQQKPGKAPKLLIYKASSLASGVPSRFSGSGSGTEFTLTISSLQPDDFATYYCQQYSNYPPTFGGGTKLEIKRTVAAPSVFIFPPSDEQLKSGTASVVCLLNNFYPREAKVQWKVDNALQSGNSQESVTEQDSKDSTYSLSSTLTLSKADYEKHKVYACEVTHQGLSSPVTKSFNRGEC
notes: also called RAA22/B09-TM
binding result [1]: no binding (tested: about 130 nM) | EC50 (read off the curve) [2]: ~1 nM | EC50 (read off the curve) [3]: ~1 nM | EC50 (read off the curve) [4]: ~10 nM | EC50 (read off the curve) [5]: ~10 nM | EC50 (read off the curve) [6]: ~2 nM | EC50 (read off the curve) [7]: ~2 nM | EC50 (read off the curve) (Human cMET): ~4 nM | binding result [8]: no binding (tested: about 120 nM) | binding result [9]: no binding (tested: about 130 nM)

B2: Telisotuzumab (antibody, V domains shown)
VH: QVQLVQSGAEVKKPGASVKVSCKASGYIFTAYTMHWVRQAPGQGLEWMGWIKPNNGLANYAQKFQGRVTMTRDTSISTAYMELSRLRSDDTAVYYCARSEITTEFDYWGQGTLVTVSS
VL: DIVMTQSPDSLAVSLGERATINCKSSESVDSYANSFLHWYQQKPGQPPKLLIYRASTRESGVPDRFSGSGSGTDFTLTISSLQAEDVAVYYCQQSKEDPLTFGGGTKVEIK
IC50 (read off the curve) (human cMET-Fc): ~1 nM | EC50 (read off the curve) [10]: ~1 nM | EC50 (read off the curve) [11]: ~0.8 nM

B3: Bsab 44 (bispecific antibody, human IgG1, kappa, L234A L235A)
anti EGFR knob chain (scFab): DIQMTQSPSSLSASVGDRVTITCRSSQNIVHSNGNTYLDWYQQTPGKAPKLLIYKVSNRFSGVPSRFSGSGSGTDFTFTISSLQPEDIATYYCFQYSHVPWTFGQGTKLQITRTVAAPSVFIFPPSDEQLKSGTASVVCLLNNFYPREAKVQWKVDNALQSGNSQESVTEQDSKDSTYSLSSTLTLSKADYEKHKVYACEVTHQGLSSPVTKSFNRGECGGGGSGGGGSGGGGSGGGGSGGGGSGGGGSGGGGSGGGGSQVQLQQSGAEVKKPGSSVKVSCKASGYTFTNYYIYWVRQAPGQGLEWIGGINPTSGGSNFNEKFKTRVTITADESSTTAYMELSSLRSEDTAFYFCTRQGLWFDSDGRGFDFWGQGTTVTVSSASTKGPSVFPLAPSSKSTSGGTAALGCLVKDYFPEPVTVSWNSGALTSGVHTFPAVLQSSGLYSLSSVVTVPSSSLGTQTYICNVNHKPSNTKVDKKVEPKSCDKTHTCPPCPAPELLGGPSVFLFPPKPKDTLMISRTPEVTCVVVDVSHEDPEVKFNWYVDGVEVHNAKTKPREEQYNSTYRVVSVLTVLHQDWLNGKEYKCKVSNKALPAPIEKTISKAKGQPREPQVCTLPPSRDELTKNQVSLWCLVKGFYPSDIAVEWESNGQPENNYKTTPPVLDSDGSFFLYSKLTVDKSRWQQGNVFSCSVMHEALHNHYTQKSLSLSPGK
anti cMET hole chain (scFab): DIQMTQSPSSLSASVGDRVTITCKSSQSLLYTSSQKNYLAWYQQKPGKAPKLLIYWASTRESGVPSRFSGSGSGTDFTLTISSLQPEDFATYYCQQYYAYPWTFGQGTKVEIKRTVAAPSVFIFPPSDEQLKSGTASVVCLLNNFYPREAKVQWKVDNALQSGNSQESVTEQDSKDSTYSLSSTLTLSKADYEKHKVYACEVTHQGLSSPVTKSFNRGECGGGGSGGGGSGGGGSGGGGSGGGGSGGGGSGGGGSGGGGSEVQLVESGGGLVQPGGSLRLSCAASGYTFTSYWLHWVRQAPGKCLEWVGMIDPSNSDTRFNPNFKDRFTISADTSKNTAYLQMNSLRAEDTAVYYCATYRSYVTPLDYWGQGTLVTVSSASTKGPSVFPLAPSSKSTSGGTAALGCLVKDYFPEPVTVSWNSGALTSGVHTFPAVLQSSGLYSLSSVVTVPSSSLGTQTYICNVNHKPSNTKVDKKVEPKSCDKTHTCPPCPAPEAAGGPSVFLFPPKPKDTLMISRTPEVTCVVVDVSHEDPEVKFNWYVDGVEVHNAKTKPREEQYNSTYRVVSVLTVLHQDWLNGKEYKCKVSNKALPAPIEKTISKAKGQPREPQVYTLPPCREEMTKNQVSLSCAVKGFYPSDIAVEWESNGQPENNYKTTPPVLDSDGSFFLVSKLTVDKSRWQQGNVFSCSVMHEALHNHYTQKSLSLSPGK
EC50 (read off the curve) [12]: ~2 nM | EC50 (read off the curve) [13]: ~2 nM

B4: Onartuzumab (antibody, V domains shown)
VH: EVQLVESGGGLVQPGGSLRLSCAASGYTFTSYWLHWVRQAPGKGLEWVGMIDPSNSDTRFNPNFKDRFTISADTSKNTAYLQMNSLRAEDTAVYYCATYRSYVTPLDYWGQGTLVTVSS
VL: DIQMTQSPSSLSASVGDRVTITCKSSQSLLYTSSQKNYLAWYQQKPGKAPKLLIYWASTRESGVPSRFSGSGSGTDFTLTISSLQPEDFATYYCQQYYAYPWTFGQGTKVEIK
EC50 (read off the curve) [14]: ~1 nM | EC50 (read off the curve) [15]: ~0.4 nM | EC50 (read off the curve) [16]: ~0.7 nM
